B1: PKD2L1 (parent)
chain: SGPEAARAGGWVSGEEFYMLTRRV

Variants of: B1
Experiment: protein stability index of a GFP-peptide fusion (GPS, HEK-293T) (PSI 1-6); higher = more stable
Conditions: c terminus: a fixed tail appended
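Also: lentivirally expressed fusions sorted by FACS into six bins by GFP to DsRed ratio, PSI derived from sequencing read proportions per bin multiplied by bin number.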

Protein stability index, by site and new letter:
F17: A 4.1; Q 4.05
W11: Q 3.92; L 3.09; R 3.19; I 2.6; K 2.21; D 3.52; S 2.89; V 3.19; Y 2.75; F 2.05; M 2.76; T 3.09; G 3.28; A 3.56; C 2.79; P 3.19; H 4.33; E 4.09; N 3.85
V24: E 3.16; Y 2.07; L 1.98; W 2.14; F 1.71; D 3.54; N 2.66; H 2.72; S 2.67; R 2.63; G 2.48; A 1.97; Q 3.01; C 2.08; P 2.81; K 3.63; I 1.96; T 2.98; M 1.71
E15: C 1.54; T 2.45; N 2.46; G 2.2; V 2.03; H 2.17; K 2.92; P 2.52; M 1.48; Y 1.65; R 2.62; F 3.15; W 1.99; L 2.02; S 2.1; A 1.86; Q 2.16; D 2.54; I 1.59
T21: S 2.62; G 3.08; E 3.29; L 2.62; C 2.29; I 1.75; Q 2.94; N 2.9; H 2.27; P 3.33; A 2.41; M 2.67; W 2.12; Y 1.6; D 3.76; V 1.57; K 3.71; R 3.1; F 1.5
R23: T 2.07; V 2.16; W 2.87; D 3.49; E 2.84; S 2.97; K 2.45; Q 1.92; Y 2.44; F 2.06; G 2.93; A 1.85; H 2.05; P 2.62; N 2.5; M 1.84; L 1.53; C 2.14
A8: M 1.8; R 2.03; S 2.31; C 1.97; E 3.22; Y 1.76; F 1.7; V 2.25; G 2.15; D 2.43; T 2.24; H 1.81; N 2.18; Q 2.65; P 2.05; I 1.76; L 2.02; W 2.71; K 2.13
M19: N 3.63; S 3.43; Q 3.38; K 3.1; D 3.5; E 3.69; H 3.08; R 3.11; A 2.13; L 3.28; G 3.03; I 2.01; P 3.94; V 1.48; F 2.93; C 2.82; Y 2.39; W 2.68; T 2.94
R22: Y 2.41; G 2.33; I 2.28; T 1.33; D 3.43; Q 2.25; K 2.04; W 1.72; L 3.52; S 2.55; H 1.96; E 3.26; P 2.44; C 1.55; N 2.81
G9: Y 2.21; L 2.95; T 1.92; S 2.42; C 1.59; K 1.97; F 2.06; I 2.25; V 1.85; E 2.5; D 2.5; Q 2.51; P 2.39; N 2.13; R 1.95; M 1.97; H 2.03; A 1.92

— the supplement of paper PMC10567573
